Measured values as given in patent US20030199423A1 (published 2003).

T1: macaque ICAM-R on peripheral blood leukocytes (Macaca fascicularis, UniProt A0A2K5TJA8 30-547)
T1 construct: whole, on cells; also called monkey PBL; macaque leukocytes
T1 sequence: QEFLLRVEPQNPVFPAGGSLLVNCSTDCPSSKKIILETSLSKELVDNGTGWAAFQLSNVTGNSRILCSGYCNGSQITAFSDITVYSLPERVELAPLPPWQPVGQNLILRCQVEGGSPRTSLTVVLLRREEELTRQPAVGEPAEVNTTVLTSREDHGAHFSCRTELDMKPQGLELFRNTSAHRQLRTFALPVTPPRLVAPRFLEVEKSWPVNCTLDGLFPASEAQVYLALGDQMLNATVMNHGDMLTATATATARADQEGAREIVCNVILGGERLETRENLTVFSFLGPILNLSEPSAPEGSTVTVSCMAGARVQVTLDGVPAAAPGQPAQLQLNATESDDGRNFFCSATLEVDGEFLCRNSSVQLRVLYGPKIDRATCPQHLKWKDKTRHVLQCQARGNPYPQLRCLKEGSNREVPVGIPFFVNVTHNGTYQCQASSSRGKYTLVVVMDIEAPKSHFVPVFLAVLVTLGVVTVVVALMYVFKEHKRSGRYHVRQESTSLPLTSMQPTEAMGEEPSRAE

T2: ICAM-R mutant F21V/AS (human, UniProt P32942 30-547)
T2 construct: on transfected COS cells
T2 chain: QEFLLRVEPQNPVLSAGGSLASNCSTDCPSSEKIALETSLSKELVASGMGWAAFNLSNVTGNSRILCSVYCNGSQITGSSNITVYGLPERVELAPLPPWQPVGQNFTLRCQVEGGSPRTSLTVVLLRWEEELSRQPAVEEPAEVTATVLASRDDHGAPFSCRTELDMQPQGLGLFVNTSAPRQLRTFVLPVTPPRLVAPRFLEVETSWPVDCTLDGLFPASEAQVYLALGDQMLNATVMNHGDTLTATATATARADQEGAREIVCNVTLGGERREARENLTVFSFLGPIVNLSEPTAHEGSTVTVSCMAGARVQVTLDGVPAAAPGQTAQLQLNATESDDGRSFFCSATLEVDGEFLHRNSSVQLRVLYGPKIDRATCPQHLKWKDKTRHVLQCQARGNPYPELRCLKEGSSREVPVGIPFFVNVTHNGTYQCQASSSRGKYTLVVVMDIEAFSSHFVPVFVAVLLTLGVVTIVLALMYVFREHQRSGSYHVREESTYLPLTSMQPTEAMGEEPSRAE

T3: ICAM-R/IgG chimera, wild type (human, UniProt P32942 30-485)
T3 construct: also called ICAM-3/IgG; ICAM-R/Ig fusion protein
T3 chain: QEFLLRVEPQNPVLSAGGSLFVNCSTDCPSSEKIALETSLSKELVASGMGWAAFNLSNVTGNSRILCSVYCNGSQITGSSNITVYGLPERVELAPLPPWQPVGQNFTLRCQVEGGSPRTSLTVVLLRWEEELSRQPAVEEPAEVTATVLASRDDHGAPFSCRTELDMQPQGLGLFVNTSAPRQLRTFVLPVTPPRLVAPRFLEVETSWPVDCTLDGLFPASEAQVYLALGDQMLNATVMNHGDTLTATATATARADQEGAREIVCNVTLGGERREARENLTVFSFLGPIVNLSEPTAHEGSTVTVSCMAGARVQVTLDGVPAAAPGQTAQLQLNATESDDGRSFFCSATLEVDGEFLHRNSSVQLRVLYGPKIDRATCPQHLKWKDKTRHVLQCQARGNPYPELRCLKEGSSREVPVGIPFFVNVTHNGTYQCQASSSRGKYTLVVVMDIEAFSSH

B1: monoclonal antibody ICR-8.1 (antibody, mouse IgG1, V domains shown)
VH: EIQLQQTGPELVKPGASVKISCKASGYSFTDCIILWVKQSHGKGLEWIGKINPYFGTTTYNLKFKGKATLTVDKSSSTAHMQLNSLTSEDSAVYYCARKEAYPDAMDYWGQGTSVTVSS
VL: DAVMTQTPLSLPVSLGDQASISCRSSQSLVHSNGDTYLHWYLQKPGQSPQLLIYKVSNRFSGVPDRFSGSGSGTDFTLKLSRVEAEDLGVYFCSQSTHVPYTFGGGTKLEIK
notes: murine IgG1, kappa; hybridoma ATCC HB 11232; also called 46D7E
B2: humanized ICR-1.1 antibody HuVHK/HuVKP (antibody, human IgG4, V domains shown)
VH: QVQLVQSGAEVKKPGASVKVSCKASGYTFTVYWMHWVRQAPGQGLEWMGYINPNTDYTEYNQRFQDRVTITADKSTSTAYMELSSLRSEDTAVYYCARWGGNSYGLDYWGQGTLVTVSS
VL: DIQMTQSPSSLSASVGDRVTITCSASSSVSYIYWYQQKPGKAPKPLIYLTSNLASGVPSRFSGSGSGTDFTLTISSLQPEDFATYYCQQWKSIPLTFGQGTKLEIK
notes: human IgG4, human kappa
B3: monoclonal antibody ICR-1.1 (antibody, mouse IgG2a, V domains shown)
VH: QVQLQQSGAELAKPGASVKMSCKASGYTFTVYWMHWVKQRPGQGLEWIGYINPNTDYTEYNQRFQDKATLTADKSSSTAYMQLSSLTSEDSAVYYCARWGGNSYGLDYWGQGTSVTVSS
VL: QIVLTQSPALMSASPGEKVTMTCSASSSVSYIYWYQQKPRSSPKPWIYLTSNLASGVPARFSGSGSGASYSLTISIMEAEDAATYYCQQWKSIPLTFGAGTKLELK
notes: murine IgG2a, kappa; hybridoma ATCC HB 11053; also called 26E3D; 26E3D-1
B4: ICAM-2/IgG fusion protein (Fc fusion, not shown: a dimerising Fc or GST)
chain: KVFEVHVRPKKLAVEPKGSLEVNCSTTCNQPEVGGLETSLDKILLDEQAQWKHYLVSNISHDTVLQCHFTCSGKQESMNSNVSVYQPPRQVILTLQPTLVAVGKSFTIECRVPTVEPLDSLTLFLFRGNETLHYETFGKAAPAPQEATATFNSTADREDGHRNFSCLAVLDLMSRGGNIFHKHSAPKMLEIYEPVSDSQ
B5: soluble human ICAM-R (receptor)
chain: T3 chain
notes: baculovirus, Sf-9 cells, lentil lectin purified; also called shICAM-R; soluble ICAM-R

Legend:
[1] = molecular target: T1, macaque ICAM-R on peripheral blood …; assay: FACS on Macaca fascicularis PBL
[2] = molecular target: T2, ICAM-R mutant F21V/AS; assay: FACS on COS transfectants
[3] = molecular target: T3, ICAM-R/IgG chimera, wild type; assay: ELISA on ICAM-R/Ig fusion protein
[4] = molecular target: B5; assay: ELISA on coated baculovirus soluble ICAM-R
[5] = molecular target: Mac-1 (CD18/CD11b) (UniProt P11215 17-1152; P05107 23-769); assay: neutrophil adhesion to coated chimeras with blocking antibodies
[6] = molecular target: T4, Gp 150,95 (CD18/CD11c) (UniProt P20702 20-1163; P05107 23-769); assay: shICAM-R coated fluorescent beads on wells coated with purified Gp 150,95
T4 construct: purified, coated on plastic
T4 sequence (P20702 20-1163 limits assumed, chain 1 of 2): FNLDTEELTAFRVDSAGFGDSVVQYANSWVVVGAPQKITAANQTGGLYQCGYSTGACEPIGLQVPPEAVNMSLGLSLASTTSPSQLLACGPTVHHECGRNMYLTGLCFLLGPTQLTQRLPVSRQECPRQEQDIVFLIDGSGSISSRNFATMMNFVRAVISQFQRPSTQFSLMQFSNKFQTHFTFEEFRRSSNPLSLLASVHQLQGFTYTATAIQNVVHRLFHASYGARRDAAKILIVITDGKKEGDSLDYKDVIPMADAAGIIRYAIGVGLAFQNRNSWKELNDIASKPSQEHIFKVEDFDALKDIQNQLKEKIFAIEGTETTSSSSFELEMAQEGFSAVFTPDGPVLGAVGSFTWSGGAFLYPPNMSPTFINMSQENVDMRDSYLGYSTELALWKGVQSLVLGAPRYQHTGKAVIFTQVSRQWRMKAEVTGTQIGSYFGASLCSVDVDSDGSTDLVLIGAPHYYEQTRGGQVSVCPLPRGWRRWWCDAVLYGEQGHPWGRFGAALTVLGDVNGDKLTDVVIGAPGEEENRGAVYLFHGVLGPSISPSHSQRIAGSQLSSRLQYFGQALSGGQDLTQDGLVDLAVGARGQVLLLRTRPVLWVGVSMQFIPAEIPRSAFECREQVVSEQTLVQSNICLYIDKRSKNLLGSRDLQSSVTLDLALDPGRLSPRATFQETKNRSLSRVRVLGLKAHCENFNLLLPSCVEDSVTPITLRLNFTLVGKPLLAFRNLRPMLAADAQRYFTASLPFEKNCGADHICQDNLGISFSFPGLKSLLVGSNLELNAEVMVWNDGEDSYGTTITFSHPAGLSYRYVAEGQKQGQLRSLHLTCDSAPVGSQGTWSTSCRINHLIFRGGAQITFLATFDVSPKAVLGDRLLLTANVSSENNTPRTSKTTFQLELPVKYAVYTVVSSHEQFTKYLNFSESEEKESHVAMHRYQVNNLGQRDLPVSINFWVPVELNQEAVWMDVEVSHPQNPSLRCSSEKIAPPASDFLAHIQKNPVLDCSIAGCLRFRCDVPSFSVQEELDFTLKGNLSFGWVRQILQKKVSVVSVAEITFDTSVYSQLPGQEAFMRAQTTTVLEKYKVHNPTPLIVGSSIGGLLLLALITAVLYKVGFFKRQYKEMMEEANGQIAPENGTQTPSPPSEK
T4 sequence (P05107 23-769 limits assumed, chain 2 of 2): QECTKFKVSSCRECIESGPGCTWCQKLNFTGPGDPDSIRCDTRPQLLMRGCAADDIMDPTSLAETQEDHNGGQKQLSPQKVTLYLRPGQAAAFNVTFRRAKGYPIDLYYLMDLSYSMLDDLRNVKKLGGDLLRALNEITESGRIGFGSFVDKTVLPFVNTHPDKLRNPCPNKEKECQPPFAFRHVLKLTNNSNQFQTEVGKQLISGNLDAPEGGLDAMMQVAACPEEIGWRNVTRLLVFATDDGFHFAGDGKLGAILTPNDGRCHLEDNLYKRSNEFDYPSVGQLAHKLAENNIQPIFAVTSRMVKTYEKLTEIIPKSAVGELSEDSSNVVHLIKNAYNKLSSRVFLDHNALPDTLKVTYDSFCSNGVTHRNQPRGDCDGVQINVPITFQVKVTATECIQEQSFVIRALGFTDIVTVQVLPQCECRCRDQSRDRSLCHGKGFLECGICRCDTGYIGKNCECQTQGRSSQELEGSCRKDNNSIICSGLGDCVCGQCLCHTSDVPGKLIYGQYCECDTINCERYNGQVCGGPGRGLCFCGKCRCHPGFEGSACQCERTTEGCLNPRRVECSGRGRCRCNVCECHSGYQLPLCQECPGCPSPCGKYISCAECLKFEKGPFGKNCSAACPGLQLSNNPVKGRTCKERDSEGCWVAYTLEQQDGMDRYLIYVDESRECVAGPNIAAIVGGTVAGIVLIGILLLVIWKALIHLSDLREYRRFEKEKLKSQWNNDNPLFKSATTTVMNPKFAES

Binder | binding result [1] | binding result [2] | further results
B1 | no binding | no binding | 
B2 |  |  | binding relative to the chimeric antibody (MuVH/MuVK) [3]: ≤ 50 % difference; binding relative to the chimeric antibody (MuVH/MuVK) [4]: ≤ 50 % difference
B3 | no binding | no binding | 
B4 |  |  | binding result [5]: binds
B5 |  |  | binding result [6]: binds
